# Measurements from PMC8875297.
# Read-outs that look alike come from different tables or passages of the source.
Substance,degradation_or_half_life (ubiquitination at K269),degradation_or_half_life (phosphorylation at T286),other (phosphorylation at T286)
"cyclin D1: AMBRA1 depletion (siRNA, AMBRA1-/-, auxin-inducible degron)",decreases,,
cyclin D1: MLN4924,decreases,,
cyclin D1: T286A,,decreases,abolishes
